Assay results published in patent US20230226096A1 (Orna Therapeutics, Inc., priority 2020, published 2023).

B1: Potamipivirus A (nucleic acid)
DNA: CACATGGAAAGCTTTTCGCTTCCATGTTTACGCACACACTCTCTTTGACACCCTGTTGTATGGTGTTAAACTACAACATTTGTCTGTCTATAATCGTTTATTTTGTTTACCCTATATGTACCCAAGTATTTGATTGCTTGACTCACATAAGCATCGGTAACCCATACTGTTTTATGAGCTACTACCTCTGCTGTCTACATACATTTTATATGAATGGTTTGAGCTCTGCCTCAGGATCAAACATGGTAACATGTTCCTTTGGTCAGTTAGAATCTTATTGTATAATCTAAGGTGTCTATTAGTACGTAGAAAGTTGTAACACATATGGGGCCTGATAGCCGCTATCTCTGATGGATGTAAGGTAACCTTCTTTAGGTCTGATACATTCTGCACAGGATCCAATTTTCGGTGCCCTGTACGAGTGCACTCTTATGCACGAGGACGAGATATGCTACAACCCACTGCAAATTTAAACCCAAACTTTAACA
modifications: Potamipivirus A
B2: Oscivirus (nucleic acid, listed as Oscivirus sp.)
DNA: CCTCGGTCCCTCTTTCCGTCGCCGCCCACGACGTTAAATGCGGTGTTGTGGTGCTTAGGTGCCACACCACTGCTATTTGGGTCCCCCTTTCCCCTATATATGTTTGTTTGTTTATTTCAATTTCTTGAGGATTGGCACCTCCTTATGCCAAATCTAAATCGTGGAGGATCCCAGGCTTTCTGGTCTTTAACAGAACTCCACGTCCAGGTCATAGAAACTGGTTGGTAGGCTGCCTGAGTAGTCCATTTGCTAGTAGTCCCTTGTGAACAGGGTGGCTCCCGTTTACTGCTGGTATTCCCGGTGTAGGTCGCCATGGTGGTAACACCATCCTGCATTGTGTGTGAACCAGTACCGCAAGGATAGCAAGGTATGAACACTTGTGGACGAAATGGTAAGTGATCAATTCACTTTCATGGCCGGAAGGTCACGTGGCAATCATGCCACCCAGGTACCCTCCTCTGGGAGGATCTGAGGGTGGGCTAAGCAGACCCTGCCATGTGGCTGAACTTTTCCCTTATTGTTTTACTTTGTAACATTTATAGTTGTGTTAGTGATTTGTGTGTTGTGCCCTTGTGAGCTATATCCAGTATAAGTTCGCAGCTAGAAGTTAATCCTTCGACATCGGCTGTATTGGAA
B3: Potamipivirus B (nucleic acid)
DNA: TTTCAACGTCGTGGCTGACGTTAAAAAGCCACAATTCCACTTACCTTTTACCTTTTATGTTTAATGTTTGTTAGTTTTGTGATCTTTAACAAATAGATCTAAATAATTTGTTGGTAACCAATCTCGGATGTTTCGGCTGCATTGTAGTTTATTTATTTCATTTTAGTTGTAGGTGGCCACTACGTCCTGGAATCATACATGGTAACATGTACCTCGGCGGTTATCCACTATTACGCTAATCTAAGAATATTTAAATGAAAATGTAAGTGTTACGGCTGACTTTGGGCCTGATAGTTAAATGCTCGCACTGACAGATAGTACCCTCCTTTAGGATCGATTCTGTTACATGGGATCCATTTTGGTGCCCCACTGATTCAACCTCTTTGTTGAAAAAGAGTTAGCATACTACAAATTTTCCAAACAAAAACCCTTTTTAATGACTACAACTTATGATTTTATGAATTTTACTGCTCTTGAAAAAGATATTTTGACATTGATCGCTGTACTGTTTCAGACATTCATTGCATCCATTTTTGTTGGCTACTCCTCACAAACTCAAAACTTTTCCACACGAGAAACCTTGTTTATTGAATTTTGCCTTTATATTTTGGAACTTGTTGTTGGATTTATTGTTTGCTTAATTATTGACCTCACACCTGTTTTAAACACTACAAT
modifications: Potamipivirus B
B4: Beihai Conger Picornavirus (nucleic acid)
DNA: GGGACAACCCCACAGCTGGTACAACCATTGTGGGTTGGTCTCCACCCTTTTTCAACCGTGGCAACTTCGGTTAAAGTTGCAAATCCCCCCTCTCCCTATTCCACCTCCCTTACTTTCACTCCCCATATATGGTCCCAGATTTTATTCTACCTCTTTATATTTTTATTTAGTACAGTGGTGGTGAATTACTCCCAGCATAAACTTTGCTGGATCAGTGTTCATCAAGCATACTAATTACTAATGTACTGAGCTATACTATTATCTGGCATCTCACCTGGATAACCGGTGTGACCATATTTCCTAGGTTGCCTCCCTATGTATTTTGTAGCACCTGTGCATCTGCACGTTGGGGCGACAAATTGTAGGTTTCCTGGCACGGGTAAGAATTGTGGAAAGCTAGTATGCAGTTAATGCAAGGGCGCGTTTTTCGCTACCCCGACACTGCTAAAGTTTTTGGGAGGGGTCCCTTAAACATTTCTAGTATTGAGTGATAGCTTTGCGGCAGGTCACCACAACCTTACTATAAATAAACCTGTTGAATCTCAC
B5: Porcine Sapelovirus A2 (nucleic acid, listed as Sapelovirus sp.)
DNA: TTGAAATGGGTGTGGGGTACATGCGTATTACGGTACGCATATATTCCACACTCATTTCCCCCCCTCCACCCTTAAGGTGGTTGTATCCCCATACCTTACCCTCCCTTCTAAAACAGATGGACAAATGGATTTGAACTTATGGCAAGTGAATATGGTATGACTTTGGATACACTTTAACGGCAGTAGCGTGGCGAGCTATGGAAAAATCGCAATTGTCGATAGCCATGTTAGTGACGCGCTTCGGCGTGCTCCTTTGGTGATTCGGCGACTGGTTACAGGAGAGTAGGCAGTGAGCTATGGGCAAACCTCTACAGTATTACTTAGAGGGAATGTGCAATTGAGACTTGACGAGCGTCTCTTAGAGATGTGGCGCATGCTCTTGGCATTACCATAGTGAGCTTCCAGGTTGGGAAACCTGGACTGGGCCTATACTACCTGATAGGGTCGCGGCTGGCCGCCTGTAACTAGTATAGTCAGTTGAAACCCCCC
B6: Simian Sapelovirus 1 (nucleic acid, listed as Sapelovirus sp.)
DNA: CCAAGGATCTGTTGCATAGGCGTTGTATCCCCTAACCTTTTACCTACCCATCCCAATAGGACTGGTATTTCGGTTTTGATTGAGTAATGGATACTGATTCTATACCTGTTACCCATTCAGGGGAAAAATGGAGTTTCTTTCATGGATCTGACTTGATATGACCAAGAGTCAACACTTTGCGTGTTGGCCGTATGGAATGCTTTAAGGTTTATTCTTTGGATTATGACTTCAGGGTTGGCCGCCCAGGATAAAAGGCAATTGTGGTAAGTGATGTTAGTCATTGGTGGTTGAAACCTGCCTAAGACGTCCTAGGTCTACGCTGTGCGGGCCGAAGTAAGCTTAGGAATAACAGGGAGTATGCCATTTTCTGCTTTCACCCAACACGACCGTACACGAAAGAGCTAGAGGCACTTTGGGGCAAAGGGAAAAGCTTTGCTTAGCCCGAATGTTCATTTGAGTCCTTGACGAATGCGTCCCGTCTGTCCCGACGGTGAGGCGTATGGCGCATGCTCATGGCATTACCCAATGGTGTATCTGTGAGGGGGGGGCTCCTCACACTTAGTCTAGTGCTACCTGACAGGGCCGCGGCTGGTCGTTTGTGTATGGTATAACCAGTAGTAATCCCCCATGGATTGCTTTAACTTCCCCTCCTCCCTTACCAAGACATTCTCTAAG
B7: Simian Sapelovirus 2 (nucleic acid, listed as Sapelovirus sp.)
DNA: TTTTAACTTGTTATGACATTCAAGGAAAAAATGTCTTTTTCATTATGGGACTGACCTGTTTATGAACATGAGCAGCGGCACTGCTCCACGGGCTATCCGTGTAAGAAATATTGATTATTCTTATGGATCATGATTTCAGGGTTGGCCGCCCAGTCTAAAAGGCAATTGTGGTAAGCTATGTAAGTAGTTGGCTGTTGAAAGGAGCCAAGTACATCCTAGGTCTACGCTGTGCGGGCCGAAGTAAGACTTGGAACAACTCTGAGTAGGCAGTTTTTCTCTTTAGCCCAACACGACCGCATACTGAAGAGCTAGAGGCACTTTGGGGCAAAGGTAAAAGCATTGCTTAGACCGAATGTTCAATGAGACCTTGACGAGTGCTGTCACAGTGTCCCCTGATGGCAGTATGGCGCATGCTCTTGGCATTACCCATATGTGTATCTATAGGGGGGGGGCCCCCTATACTTAGTCTAGTGCTACCTGACAGGGCCGCGGCTGGTCGTCGGTGTGTGGTATAACCAGTAGTAATCCCCCATGGATTGCTTTAACTCCCCCTCCTCCCTCAACAAAACTTTCTCTAAG
B8: Rabovirus C (nucleic acid)
DNA: CCGGGTATAACCCGGAGTTTTGGGGCAGGTCCAAGCCCCACATAGGAACATACGATCCACGGATCGTGTGTTCTTTTATGCTTTCTAACCTTACCCTTTGTAACCATTACGCTTTACGCCGCATGGTGTTTGGCGGCACCATGACGTGGACAAGAGGTTACGCCATTACGATATGTACCCTCCCCTTTTGGGGAGAGACCGACCAATTATGGTACAGTATCCAACTGTATTGTGGTCAAGTACTTCTGTTTCCCCGGTGATGCGGGATAGGCTGTACCCACGGCCAAAACCTGCTGATCCGTTACCCGACTCACATCTACGAGGAGGCTAGTAAAAGGCATGAAGTTCAAGAGTATGATCCAACCAGATCCCCACTGGTAAACTAGTGATGAGGGTTCCCGTTCCGAACATGGCAACATGTGGGTTCCCTGCGTTGGCACTAGGCCCCTTCCGAGGGGTGCTCTGAAGATGGATTGTTGATGAAGACCAATTTGTGCATGTGTTTATCCTCCGGCCCTCTGA
modifications: Rabovirus C
B9: Rabovirus A NYC-B10 (nucleic acid)
DNA: CCGACCCCACTGGTCGAAGGCCACTTGGCAATAAGACTGGTGGAACAAGGTCGCCTGTAGTTGATTGGAACCTTCTTTCTAATGACTTATGTCAGCGGTGCTACTCACACCGTAACTCTCCTACCCTATCCCCACGCTTGTGGAACTAGGAGGGGATGAGTGATTCAAGTAAGTACTGTCAGAATGGTGAAAATAATCTGATTCTGAAACGCTATGGATCCATCGAAAGATGGGGCTACACGCCTGCGGAACAACACATGGTAACATGTGCCCCAGGGGCCGAAAGCCACGGTGATAGGATCACCCGTGTAGTTTGAGATCATATCAATGTTCATAGTCTAGTAAGATGATTTGAAATCTAACTGGTCTGATGGCTAACTGCTTGTCTTATTGCGGCCTAAGGATGTCCTGCAGGTACCTTTAGAGAACCTTAAGAGACTATTGATCTGAGCAGGAGCCAAGGTGGTCTTTCCCAGCCTTGGTTAAAAAGCGTCTAAGCCGCGGCAGGGGGCGGGAGGCCCCCTTTCCTCCCAAACTATAATATAGATTGT
modifications: Rabovirus A

Test system: HEK293 cells
Format: cell-based, human
Settings: luminescence from secreted Gluc in supernatant 24 hours after transfection of HEK293 cells; circular RNA encoding Gluc with the named IRES (UTR truncated to 675 nt)

Molecule | Expression
B1 | 8.43E+05
B2 | 4.55E+07
B3 | 7.20E+05
B4 | 1.15E+06
B5 | 4.34E+06
B6 | 6.55E+07
B7 | 4.24E+07
B8 | 2.49E+06
B9 | 1.24E+06
